Assay results as given in publication PMC3912200, “Structural and Functional Characterization of Cargo-Binding Sites on the μ4-Subunit of Adaptor Protein Complex 4” (PLoS ONE, 2014).
Where a chain is given by its changes, count along the chain named. Names and notes keep the numbering of the source.

Tests used:
[1] = target: T1, recombinant μ4 C-terminal domain, wild-type (Homo sapiens, UniProt O00189); assay: Isothermal titration calorimetry with wild-type μ4; format: binding; conditions: canonical YXXØ signal peptides, 28°C, pH 7.4, stoichiometry and Kd N/D
T1 construct: recombinant C-terminal domain of human μ4 (residues 160-453); GST followed by TEV protease cleavage site (N, cleaved yes); made in house; host or cells: E. coli B834(DE3)pLysS
T1 sequence (O00189 160-453): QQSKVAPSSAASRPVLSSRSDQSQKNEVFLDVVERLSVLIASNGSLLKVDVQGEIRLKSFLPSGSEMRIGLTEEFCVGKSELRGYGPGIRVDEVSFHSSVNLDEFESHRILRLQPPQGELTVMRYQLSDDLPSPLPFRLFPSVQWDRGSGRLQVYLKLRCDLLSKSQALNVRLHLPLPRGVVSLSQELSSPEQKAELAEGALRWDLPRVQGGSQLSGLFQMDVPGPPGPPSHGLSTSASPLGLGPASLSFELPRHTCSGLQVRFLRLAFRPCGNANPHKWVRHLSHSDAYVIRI
Description: Recombinant μ4 C-terminal variants were dialyzed overnight at 4°C against excess ITC buffer (50 mM Tris-HCl, pH 7.4, 150 mM NaCl), and an APP peptide ([sequence]), a CD63 peptide (SGYEVM), or a TGN38 peptide (SDYQRL; New England Peptide, Gardner, MA) were also prepared in ITC buffer. All ITC experiments were carried out at 28°C using an iTC200 instrument (GE Healthcare). […] Titration curves were analyzed using Origin software (MicroCal). The binding constant corresponding to each μ4 construct was calculated by fitting the curves to a one-site model.
Isothermal titration calorimetry of recombinant C-terminal domain of wild-type μ4 with the TGN38 SDYQRL peptide (C), or the CD63 SGYEVM peptide (D).

[2] = system: C-terminal domain of μ3A; conditions: previously shown; ref [18]; cited from earlier work
Description: (§1) This tyrosine-based signal is related to the YXXØ motif, which is the signal contained in the cytosolic tail of transmembrane proteins that binds to a different site on the μ2 subunit of AP-2 [28], or on the μ3A subunit of AP-3 [30]. In this study, we wanted to determine whether this putative second binding site on μ4, referred here as the μ2-binding site (Figure 1, A and B), played any role in the binding to the YKFFE signal of APP ...

[3] = target: T2, recombinant C-terminal domain of human μ4-D190S (human, UniProt O00189 160-453, D190S); assay: ITC; 28°C, 50 mM Tris-HCl pH 7.4, 150 mM NaCl; chamber 250–500 µM μ4 construct, peptide 2.5–5.0 mM in 16 injections; one-site model; conditions: both partners purified
T2 construct: also called D190S mutant; source: E. coli B834(DE3)pLysS, purified (glutathione-Sepharose 4B, TEV cleavage, Ni-NTA, Superdex 200); not shown: GST, N-terminal, cleaved
T2 sequence (looked up): T1 sequence (O00189 160-453) with D31S

[4] = system: cytosolic tail of APP; conditions: mutations at μ4-binding site; previously identified; ref [18]; cited from earlier work
Description: as §1

[5] = system: canonical YXXØ signals; conditions: previous reports; ref [31]; cited from earlier work
Description: as §1

[6] = system: cytosolic tail of APP; assay: Yeast two-hybrid (Y2H) analysis of μ4 with the APP tail; format: binding; conditions: mutations at μ2-binding site; growth on -His plates, 30°C
Description: The cloning of the tail of APP (residues 649–695), full-length human μ4, and all the other yeast two-hybrid (Y2H) constructs, and the cloning of the C-terminal domain of μ4 for expression in E. coli was described previously. To generate a construct for mammalian expression, full-length human μ4 was obtained by PCR amplification and cloned into the EcoRI and SalI sites of pEGFP-N1 (BD BiosciencesClontech, Mountain View, CA) including a stop-codon before the GFP coding sequence. The cloning of APP-GFP carrying the double mutation F615P/D664A was described previously. Single amino acid substitutions were introduced using the QuikChange mutagenesis kit (Stratagene, La Jolla, CA). Y2H assays were performed as previously described. A set of pCI-neo (Promega) constructs encoding hemagglutinin (HA)-epitope tagged wild-type or mutants of human μ4 was a generous gift of J. Bonifacino and R. Mattera (Cell Biology and Metabolism Program, NICHD, NIH). The nucleotide sequences of all recombinant constructs were confirmed by dideoxy sequencing.
Figure 1 Yeast two-hybrid analysis of the interaction of μ4 with the cytosolic tail of APP. (A) Superposition of the surface and ribbon representations of human wild-type μ4 C-terminal domain (pdb entry 3L81). The insets show an enlargement of the μ4-binding site and the putative μ2-binding site with residues chosen for the yeast two-hybrid (Y2H) analysis. The APP peptide (TYKFFEQ; stick model) bound to the μ4-binding site is in yellow, and the EGFR peptide (FYRALM; stick model; pdb entry 1BW8) superposed to the putative μ2-binding site is in magenta. (B) Sequence alignment of the C-terminal domain of the μ subunits of known crystal structure depicting critical residues at the corresponding μ2- and μ4-binding sites. Disordered loops are in yellow letters, and arrows and cylinders represent β-strands and α-helices, respectively. M.m., Mus musculus; R.n., Rattus norvegicus; H.s., Homo sapiens. (C) and (D) Yeast were co-transformed with plasmids encoding Gal4bd fused to the cytosolic tail of the amyloid precursor protein (APP) indicated on the left, and Gal4ad fused to wild-type or mutant μ4 constructs indicated on top of each panel. (C) Y2H analysis of μ4 with mutations on the YKFFE binding site (μ4-binding site). (D) Y2H analysis of μ4 with mutations on a putative YXXØ binding site (μ2-binding site). Mouse p53 fused to Gal4bd and SV40 large T antigen (T Ag) fused to Gal4ad were used as controls. Co-transformed cells were spotted onto His-deficient (-His) or His-containing (+His) plates and incubated at 30°C. Growth is indicative of interactions. Some mutations on either of the two sites affect the interaction of μ4 with the cytosolic tail of APP.

SDYQRL [TGN38 SDYQRL peptide, peptide bearing the canonical YXXØ signal of TGN38]
interaction (ITC) [1]: undetectable | binding to C-terminal domain of μ3A [2]: bind well

SGYEVM [CD63 SGYEVM peptide, peptide bearing the canonical YXXØ signal of CD63]
interaction (ITC) [1]: undetectable | binding to C-terminal domain of μ3A [2]: bind well

B1: APP peptide ENPTYKFFEQ (peptide)
peptide: ENPTYKFFEQ
notes: amyloid precursor protein (APP), stretch of the cytosolic tail with the YKFFE signal (Y687 to Q692 printed); numbers count on: APP695; also called APP sorting signal; source: synthetic peptide (New England Peptide)
binding result [3]: binds

B2: E265A: μ4 mutant, μ4-binding site, reported previously (protein, UniProt O00189 1-453, looked up, variant E265A)
AP-4 complex subunit mu-1: MISQFFILSSKGDPLIYKDFRGDSGGRDVAELFYRKLTGLPGDESPVVMHHHGRHFIHIRHSGLYLVVTTSENVSPFSLLELLSRLATLLGDYCGSLGEGTISRNVALVYELLDEVLDYGYVQTTSTEMLRNFIQTEAVVSKPFSLFDLSSVGLFGAETQQSKVAPSSAASRPVLSSRSDQSQKNEVFLDVVERLSVLIASNGSLLKVDVQGEIRLKSFLPSGSEMRIGLTEEFCVGKSELRGYGPGIRVDEVSFHSSVNLDEFASHRILRLQPPQGELTVMRYQLSDDLPSPLPFRLFPSVQWDRGSGRLQVYLKLRCDLLSKSQALNVRLHLPLPRGVVSLSQELSSPEQKAELAEGALRWDLPRVQGGSQLSGLFQMDVPGPPGPPSHGLSTSASPLGLGPASLSFELPRHTCSGLQVRFLRLAFRPCGNANPHKWVRHLSHSDAYVIRI
effect of mutation on binding to the APP YKFFE signal [4]: null effect

B3: D190A: μ4 mutant, μ2-binding site, Y2H construct (protein)
chain: B2 AP-4 complex subunit mu-1 with D190A, A265E
modifications: left off: Gal4 activation domain, end not stated, kept
interaction of μ4 mutant with canonical YXXØ signals [5]: loss of these interactions | effect of mutation on interaction of the APP tail with μ4 (Y2H) [6]: abrogated

B4: L261S: μ4 mutant, μ4-binding site, Y2H construct (protein, UniProt O00189 1-453, looked up, variant L261S)
AP-4 complex subunit mu-1: B2 AP-4 complex subunit mu-1 with L261S, A265E
effect of mutation on binding to the APP YKFFE signal [4]: sensitivity

B5: R283A: μ4 mutant, μ4-binding site, reported previously (protein, UniProt O00189 1-453, looked up, variant R283A)
AP-4 complex subunit mu-1: B2 AP-4 complex subunit mu-1 with A265E, R283A
effect of mutation on binding to the APP YKFFE signal [4]: null effect

B6: R283D: μ4 mutant, μ4-binding site, Y2H construct (protein, UniProt O00189 1-453, looked up, variant R283D)
AP-4 complex subunit mu-1: B2 AP-4 complex subunit mu-1 with A265E, R283D
effect of mutation on binding to the APP YKFFE signal [4]: sensitivity

B7: F255A: μ4 mutant, μ4-binding site, Y2H construct (protein, UniProt O00189 1-453, looked up, variant F255A)
AP-4 complex subunit mu-1: B2 AP-4 complex subunit mu-1 with F255A, A265E
effect of mutation on binding to the APP YKFFE signal [4]: sensitivity
